Data taken from US20250382359A1 (BYOMASS, published 2025).

T1: Cyno GDF15 Fc (cyno, UniProt G7PWZ3 193-308, limits assumed)
T1 construct: also called cyno GDF15-Fc fusion; not shown: Fc part
T1 sequence: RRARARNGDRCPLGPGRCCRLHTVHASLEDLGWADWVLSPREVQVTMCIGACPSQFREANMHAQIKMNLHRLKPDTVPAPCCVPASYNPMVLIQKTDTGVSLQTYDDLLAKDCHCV

T2: GDF15 (ligand used in the GFRAL/RET cell assays) (UniProt Q99988 197-308, limits assumed)
T2 sequence (looked up): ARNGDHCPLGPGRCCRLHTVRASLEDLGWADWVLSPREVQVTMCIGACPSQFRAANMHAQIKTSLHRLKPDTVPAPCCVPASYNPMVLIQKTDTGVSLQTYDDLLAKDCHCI

T3: Mouse GDF15 Fc (mouse, UniProt Q9Z0J7 189-303, limits assumed)
T3 construct: also called mouse GDF15-Fc fusion; not shown: Fc part
T3 sequence (looked up): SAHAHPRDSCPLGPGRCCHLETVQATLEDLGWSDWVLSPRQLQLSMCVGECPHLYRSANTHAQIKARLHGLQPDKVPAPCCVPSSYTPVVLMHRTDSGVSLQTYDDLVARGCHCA


How the values were obtained:
[1] = target: T1, Cyno GDF15 Fc; assay: BLI Octet; antigen on sensor, 100 nM Fab (monovalent)
[2] = target: T2, GDF15 (ligand used in the GFRAL/RET …); assay: cell-based or functional assay
[3] = target: T3, Mouse GDF15 Fc; assay: BLI Octet; antigen on sensor, 100 nM Fab (monovalent)

Kd [1] [nM] | GDF15 GFRAL RET pERK Fab IC50 pM [2] [pM] | Kd [3] [nM] | Binder
0.562 | 27 | 157 | GDF15 antibody agent Clone D, Fab (Fab, V domains shown, Fab; CH1 and CL of the Fab not specified; also called Fab of Clone D) VH: QVQLQESGPGLVKPSQTLSLTCTVSGGSINSGGYYWTWIRQHPGKGLEWIGAIYYSGSTVYNPSLKSRVTISVDTSKNQFSLKLSSVTAADTAVYYCARGVEYQHFNEWGQGTLVTVSS VL: not shown
0.366 |  | 234 | GDF15 antibody agent Clone R, Fab (Fab, V domains shown, Fab; CH1 and CL of the Fab not specified; also called Fab of Clone R) VH: QVQLQESGPGLVKPSQTLSLTCTVSGGSISSGGIYWTWIRQHPGKGLEWIGAIAYSGSTYYNPSLESRVTISVDTSKNQFSLKLSSVTAADTAVYYCARGIEYQHFDYWGQGTLVTVSS VL: not shown
0.536 | 26.5 |  | GDF15 antibody agent Clone A, Fab (Fab, V domains shown, Fab; CH1 and CL of the Fab not specified; also called Fab of Clone A) VH: QVQLQESGPGLVKPSQTLSLTCTVSGGSITSGGSYWSWIRQHPGKGLEWIGAIVYSGSTYYNPSLKSRVTISVDTSKNQFSLKLSSVTAADTAVYYCARGVEYQHFDYWGQGTLVTVSS VL: not shown

Further lines, the binder ahead of its results:

Binder | Kd [1] [nM] | GDF15 GFRAL RET pERK Fab IC50 pM [2] [pM] | Kd [3] [nM]
GDF15 antibody agent Clone B, Fab (Fab, V domains shown, Fab; CH1 and CL of the Fab not specified; also called Fab of Clone B) VH: QVQLQESGPGLVKPSQTLSLTCTVSGGSISSGGIYWTWIRQHPGKGLEWIGAIAYSGSTYYNPSLKSRVTISVDTSKNQFSLKLSSVTAADTAVYYCARGIEYQHFDYWGQGTLVTVSS VL: not shown | 0.349 | 30.9 | 
GDF15 antibody agent Clone Q, Fab (Fab, V domains shown, Fab; CH1 and CL of the Fab not specified; also called Fab of Clone Q) VH: QVQLQESGPGLVKPSQTLSLTCTVSGGSISSGGIYWTWIRQHPGKGLEWIGAIAYSGSTYYNPSLKSRVTISVDTSKNQFSLKLSSVTAADTAVYYCARGIEYQHFDYWGQGTLVTVSS VL: not shown | 0.327 |  | 204
GDF15 antibody agent Clone C, Fab (Fab, V domains shown, Fab; CH1 and CL of the Fab not specified; also called Fab of Clone C) VH: QVQLQESGPGLVKPSQTLSLTCTVSGGSISSGGYYWSWIRQHPGKGLEWIGAIVYSGHTYYNPSLKSRVTISVDTSKNQFSLKLSSVTAADTAVYYCARGVEYQHFSLWGQGTLVTVSS VL: not shown | 0.36 | 36.8 | 156
